From the supplement of paper PMC9170038

Test system: MS2 coat protein
Assay: apparent KD of MS2 coat protein; designed switch direction (-1 OFF switch, 1 ON switch): -1; higher = weaker reporter binding
How it was run: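 The buffer was Tris-HCl pH 7.5 with KCl, MgCl2, BSA, DTT, tRNA and Tween-20. In it, SNAP-549-labelled MS2 coat protein was titrated in doubling steps from 0.7 or 1.5 nM to 3 µM over chip-bound RNA switches transcribed by stalled E. coli RNA polymerase on Illumina chips. Apparent KD is the per-design median over clusters of curve fits to normalised fluorescence.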

[1] = Eterna round: R95, input ligand: FMN 200 uM
[2] = Eterna round: R95, input ligand: microRNA oligo, concentration not stated
[3] = Eterna round: R95, input ligand: none
[4] = input ligand: microRNA oligo, concentration not stated

Sequence | apparent KD of MS2 coat protein [2] [nM] | apparent KD of MS2 coat protein (input ligand: FMN 200 uM) [nM] | apparent KD of MS2 coat protein (input ligand: none) [nM] | other results
UUAUAUAGUGUGAGGAUAUGCUGGUCCUUGGAUCAGCAGAAGGCACAUGAGGAUCACCCAUGUAGUUAAUUUUA [JL bmx4 3.03] (puzzle: Brourd's mod of Exclusion 4) | 25.2 |  |  | apparent KD of MS2 coat protein [1]: 118 nM; apparent KD of MS2 coat protein [3]: 29 nM
AGUGUGUUAGGAUAUCGCAUAUGCUGGAGGAGGUGGAGUUACGAGAAGGAACAUGAGGAUCACCCAUGUAGGAC [JR_Exclu4_Sub050] (puzzle: Exclusion 4) | 25.7 |  |  | 
UAAUAUCUGCAGGAUAUCGGUGUAGCACGCGUAUGAGAAGGGCAGACAUGAGGAUCACCCAUGUAUAGGGUCCG [BotMod 1 - Jieux - Exclusion 6] (Eterna round: R97, puzzle: Exclusion 6) |  | 246 | 49.4 | 
AGCUGUGGCCGAGGAUAUCUAAUAACUCAAACCGAAAUAUAAUCGGACAUGAGGAUCACCCAUGUAGAGAAGGCGGUCUCAGCA [Eli eng2 - 063] (Eterna round: R96, puzzle: Exclusion NG 2) |  |  |  | apparent KD of MS2 coat protein [4]: 69.8 nM
AAAUCGGCAGGAUAUACAUGAGGAUCACCCAUGUAAAUUUUUCGUUUAACUUGAAUGUGUAGAAGGGCCAUUAA [Ex3 #64] (Eterna round: R97, puzzle: Exclusion 3) |  | 24.8 | 24.6 | 
CUGAGCAGACGGAGAUCCAACAUGAGGAUCACCCAUGUCUCAUAAGCUUUUUGCUCAUCUUAUUGUACCUUGGUGCU [JL ViennaUCT Edcesobi mod 3] (puzzle: Sensor v3, turn-off variant 1) | 14.4 |  |  | apparent KD of MS2 coat protein [1]: 275 nM; apparent KD of MS2 coat protein [3]: 323 nM
GUAUCGUGAGGAUAUCAUGAUUGACUUUUAUUUUGUCAGCGUGAGAAGGCACAUGAGGAUCACCCAUGUGAUUA [Ex4 - 3 - 8] (puzzle: Exclusion 4) | 23.2 |  |  | 
AAAUAGUCAGGAUAUACAUGAGGAUCACCCAUGUAAACUUUUAGUUUAAUUUGAAUGUGUAGAAGGGACAUAAA [Ex3 #50] (Eterna round: R97, puzzle: Exclusion 3) |  | 31.4 | 29.3 | 
AAUAACAGAGGAUAUACUAUUUUAUGUGUUUGUUAUUUUGAACAUGAGGAUCACCCAUGUAGAAGGCUGAGUAA [JMF 36] (puzzle: Exclusion 2) | 26.8 |  |  | 
GCAAGCUUAAUCACUAUGAACAUGAGGAUCACCCAUGUAUAAGGUAUUACUUUUGGGCCCUUUAUUACUCGUCUUAU [JR_STOV1_Sub031] (Eterna round: R97, puzzle: Sensor, turn-off variant 1) |  | 51.9 | 54.4 | 
AAACUAGUAGAGGAUAUUCCAGGCAGUGUUUGAGAAGAAGGCUACACAUGAGGAUCACCCAUGUGGCCUGGUGG [Riedbi] (puzzle: Exclusion 6) | 12.8 |  |  | 
AUGCCACAUGAGGAUCACCCAUGUGAGGAUAUGGCCUGUUUGGCGUGUGCUGGCUCUGUCAGAAGGCGCGUGGG [salish99_ex1_r4_036] (Eterna round: R97, puzzle: Exclusion 1) |  | 33.9 | 25.7 | 
UGAUCUUGUGUCAGGAUAUGCUGGUCUCCUCUCCAGCAGAAGGGACAUGAGGAUCACCCAUGUUCUCUCUUUUU [Magic-11] (puzzle: Brourd's mod of Exclusion 4) | 11.5 |  |  | 
UGACUUCAUAUCACAUGAGGAUCACCCAUGUUAUUCAUCUCGUAGGAUAUCGAGGUUUAUUAUUUCGAGAAGGACGUAUUGUUU [JR_ExcNG3_Sub075] (Eterna round: R96, puzzle: Exclusion NG 3) |  | 68.6 | 45.5 | apparent KD of MS2 coat protein [4]: 44.3 nM
GGUCCACGAGGAUAUCGAUUUUAGUACAUGAGGAUCACCCAUGUUGUCCAGGUUUCGAUUCGAGAAGGCGUGGGCC [LRO-Ex5-03] (puzzle: Exclusion 5) | 20.3 |  |  | 
CUCAGUGGUGAGGAUAUGCGCGCCCAAUGGACGGUAGAAGGUACUACAUGAGGAUCACCCAUGUAGCGAAGAUU [Eternabot (L1) Solution 49] (Eterna round: R97, puzzle: Exclusion 6) |  | 15.9 | 15.8 | 
ACAUGAGGAUCACCCAUGUAAUCAUGAUGGCUGAUGUAGAGCUAGGAUAUGAGUGGCUUUCUAUCUCAGAAGGAGCUAGACUGG [Deportation 41 - Jieux - Exclusion NG 3] (Eterna round: R96, puzzle: Exclusion NG 3) |  | 29.3 | 34.9 | apparent KD of MS2 coat protein [4]: 18.1 nM
GAUCAUGCAGGAUAUACAGUUUCCAUGAAAACAUGGAACUCACAUGAGGAUCACCCAUGUAGAAGGGCAUGAUC [Omei Ex2 A26] (Eterna round: R97, puzzle: Exclusion 2) |  | 25.9 | 16.2 | 

Sequence | apparent KD of MS2 coat protein [2] [nM] | apparent KD of MS2 coat protein (input ligand: FMN 200 uM) [nM] | apparent KD of MS2 coat protein (input ligand: none) [nM] | other results
UUAAAUCAUGUAGGAUAUGCGUGGCGAAGCUAUGCAGAAGGACAUGAGGAUCACCCAUGUUCUUGCGUCUGCGUACAGAUGCGG [Exclusion NG 1] (Eterna round: R96, puzzle: Exclusion NG 1) |  | 175 | 25.9 | apparent KD of MS2 coat protein [4]: 20 nM
AGUUCACAUGAGGAUCACCCAUGUGAGGAUAUGGAUUCGCUGGCCGUAGCCAGUGGAUCCAGAAGGCGCGUGAU [JL-ex1-4.15] (Eterna round: R97, puzzle: Exclusion 1) |  | 55.7 | 65.1 | 
CACACCUCCGUCAGGAUAUUAAGGCACCGCCGCCAUGAGAAGGGACAUGAGGAUCACCCAUGUUAAUCGUGGAA [Betibier] (Eterna round: R97, puzzle: Brourd's mod of Exclusion 4) |  | 226 | 20.5 | 
AACUGUCUAGAGGAUAUGCUGGAUUAAUAUCUGGCAGAAGGUUGGACAUGAGGAUCACCCAUGUAAAUACUACC [Omei Ex6 A7] (Eterna round: R97, puzzle: Exclusion 6) |  | 33.1 | 20.3 | 
CUUAGCCUAAAAUCACGCAAGCUUUUCGCUUGUCUUAAGACAUGAGGAUCACCCAUGUCCGGGCUGAACUUAUGGAA [Esenma] (puzzle: Sensor v3, turn-off variant 2) | 19.2 |  |  | apparent KD of MS2 coat protein [1]: 18.3 nM; apparent KD of MS2 coat protein [3]: 18.5 nM
CCAACGUGAGGAUAUGCAAUGCUAGCGGGAUCUUCUCUCCAACAUGAGGAUCACCCAUGUAGAAGGCGCUGUUG [Eternabot (L1) Solution 38] (Eterna round: R97, puzzle: Exclusion 2) |  | 198 | 97.1 | 
ACAAGCUUGUAAUGAUUGAACAUGAGGAUCACCCAUGUAAAUGGAAGAACCAAUUUGAUAAGAUAUACUCGUCUUAU [JR_STOV1_Sub007] (Eterna round: R97, puzzle: Sensor, turn-off variant 1) |  | 57.8 | 59.1 | 
AGAUGUAGAAACCGAUCCUACAUGAGGAUCACCCAUGUAGCAAGACGUGCACGCGAAGCUCGUCAGACUACCAGAAG [salish99_TOv1_r3_082] (puzzle: Sensor v3, turn-off variant 1) | 188 |  |  | apparent KD of MS2 coat protein [1]: 270 nM; apparent KD of MS2 coat protein [3]: 352 nM
UCCUGACAUGAGGAUCACCCAUGUGAGGAUAUGUGGAUCGAGUCAAAUCUCGUUCCGUGCAGAAGGCACAGGGC [EX1 A.21] (Eterna round: R97, puzzle: Exclusion 1) |  | 24.9 | 19 | 
GCAUGGAAAGUGAGGAUAUACCACUGGAUACAGUGGUAGAAGGCACAUGAGGAUCACCCAUGUCUCUACCAUGC [Fiskers BMX 4 - 41] (puzzle: Brourd's mod of Exclusion 4) | 13.4 |  |  | 
UAGAUGGGAGGAUAUACGUAGAUGCAGGUUCGUGUGGUGCUACAUGAGGAUCACCCAUGUAGAAGGCCCGUCUU [Resubmit R3 JL-ex2-2.29] (Eterna round: R97, puzzle: Exclusion 2) |  | 77.4 | 18.4 | 
UUUAACAAGCCAGAUCCUCACAUGAGGAUCACCCAUGUGCUCGUCUGAUUUUGUACUAUCACGUUUGUGAUAGUGUU [Level Boss var2-07] (puzzle: Sensor v3, turn-off variant 1) | 19.1 |  |  | apparent KD of MS2 coat protein [1]: 240 nM; apparent KD of MS2 coat protein [3]: 124 nM
UUGAUUGGUGUAGGAUAUGUAUGAGGAUCACCCAUUAAUAAAUUUUAACCACGAGGAUCACCCGUGUAGAAGGACAUUGGUUAU [pwkr exNG2 2xF5 1xFMN.21] (Eterna round: R96, puzzle: Exclusion NG 2) |  | 51.9 | 59.3 | apparent KD of MS2 coat protein [4]: 37.8 nM
AGUUGGCGAGGAUAUACAUGAGGAUCACCCAUGUGAGAGAUAGUAGUGAGGUCGAUUAGUAGAAGGCGCUGACA [Mat X3R4 m13] (Eterna round: R97, puzzle: Exclusion 3) |  | 278 | 353 | 
GAUUGACAUGAGGAUCACCCAUGUGAGGAUAUCGGCUGGACCGUGUUGGCUUGGGUUUCGAGAAGGCGCAUAGG [Exclusion 1 V46] (puzzle: Exclusion 1) | 88.2 |  |  | apparent KD of MS2 coat protein [1]: 70.5 nM; apparent KD of MS2 coat protein [3]: 74.6 nM
GCAUGAAAUGUGAGGAUAUACCUCUGGAUACAUAGGUAGAAGGCACAUGAGGAUCACCCAUGUCCUAAACAUGC [Fiskers BMX 4 - 27] (puzzle: Brourd's mod of Exclusion 4) | 32.2 |  |  | 
UUUUAACAUGAGGAUCACCCAUGUGAGGAUAUCGAAAUUUAUAUUUAUAUUAAUUUAACGAGAAGGCACAUUUU [JMF 87] (puzzle: Exclusion 1) | 84.4 |  |  | 
AAUUAACAUCAGGAUAUGACUAGCUUCGGCUAGUCAGAAGGGAUGACAUGAGGAUCACCCAUGUGAUCAAUUAA [E6/2-A1] (Eterna round: R97, puzzle: Exclusion 6) |  | 127 | 134 | 
